Test system: ZAP-S
Experiment: MST

SARS-CoV-2 -1PRF pseudoknot RNA (WT) was tested, and the Kd was 121 nM.
